Article PMC2686680, “Chibby forms a homodimer through a heptad repeat of leucine residues in its C-terminal coiled-coil motif” (BMC Molecular Biology, 2009)

Molecular target: the molecule itself
Assay: SEC; His-Cby purified from stable HEK293T on Superdex 75 FPLC, 20 mM Tris-HCl pH 8.0, 1.0 M NaCl, 1 mM EDTA, 2 mM DTT, 2 mM betaine-HCl, 0.02% Triton X-100, 5% glycerol; fractions blotted with anti-Cby

B1: His-tagged Cby wild type (natural protein, human, UniProt Q9Y3M2 1-126, looked up)
chain: MPFFGNTFSPKKTPPRKSASLSNLHSLDRSTREVELGLEYGSPTMNLAGQSLKFENGQWIAETGVSGGVDRREVQRLRRRNQQLEEENNLLRLKVDILLDMLSESTAESHLMEKELDELRISRKRK
notes: Chibby (Cby), human, 126 amino acids; Cby cDNA in pcDNA4/HisMax A; the vector pcDNA4/HisMax A probably adds further N-terminal residues besides the His tag (surmise); also called His-Cby; His-CbyWT; source: transiently transfected for cross-linking), purified (nickel beads / Ni-NTA)
  stoichiometry N: 2
